Assay results: patent publication US5958954, “Synthesis and use of retinoid compounds having negative hormone and/or antagonist activities” (Allergan Sales, Inc.)

Legend:
[1] = target: RXR-alpha (UniProt P19793 P19793:1-462); experiment: EMSA; RXR alone did not produce the receptor-specific shift; conditions: tags: reticulocyte lysate from pBluescript(II)(SK) RXR-alpha cDNA; label: end-labeled
Excerpt: (§1) In vitro translated RAR-α was produced essentially as described under Example 8, except that ^35S-labeled methoinine was omitted. In vitro translated RXR-α was similarly produced using a pBluescript(II)(SK)-based vector containing the RXR-α cDNA described by Mangelsdorf, et al. in *Nature* 345:224–229 (1990) as the template for generating in vitro transcripts. The labeled RAR-α and RXR-α, alone or in combination, or prebound with AGN 193109 (10^-6M) either alone or in combination, were allowed to interact with an end-labeled DR-5 RARE double-stranded probe having the sequence 5'-[…]-3' (SEQ ID NO:1). The binding mixture was electrophoresed on a non-denaturing polyacrylamide gel and autoradiographed according to standard laboratory procedures. A single retarded species appearing on the autoradiograph that was common to all the lanes on the gel represented an undefined probe-binding factor present in the reticulocyte lysate. Only the RAR/RXR combination gave rise to a retinoid receptor-specific retarded species. Neither RAR alone nor RXR alone bound the probe to produce this shifted species.

[2] = target: T1, RAR-alpha (UniProt P10276 P10276:1-462); experiment: EMSA; RAR alone did not produce the receptor-specific shift; conditions: tags: TNT reticulocyte lysate from pGEM3Z RAR-alpha cDNA; label: end-labeled
T1 sequence: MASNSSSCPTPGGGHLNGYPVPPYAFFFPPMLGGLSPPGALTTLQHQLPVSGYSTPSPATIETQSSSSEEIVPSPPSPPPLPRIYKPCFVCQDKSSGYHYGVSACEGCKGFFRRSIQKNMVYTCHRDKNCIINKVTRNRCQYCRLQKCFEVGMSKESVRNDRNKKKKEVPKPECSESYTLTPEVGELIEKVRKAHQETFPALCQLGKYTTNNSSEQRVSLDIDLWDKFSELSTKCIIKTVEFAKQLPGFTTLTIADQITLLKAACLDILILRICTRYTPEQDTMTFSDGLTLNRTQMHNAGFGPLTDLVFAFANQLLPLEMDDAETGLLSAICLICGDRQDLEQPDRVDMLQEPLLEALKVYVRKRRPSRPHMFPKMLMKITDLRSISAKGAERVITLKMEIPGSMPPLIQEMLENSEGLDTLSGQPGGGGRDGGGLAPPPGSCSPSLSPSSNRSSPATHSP
Excerpt: as §1

RXR-alpha, sequence (P19793 whole entry, one chain of several): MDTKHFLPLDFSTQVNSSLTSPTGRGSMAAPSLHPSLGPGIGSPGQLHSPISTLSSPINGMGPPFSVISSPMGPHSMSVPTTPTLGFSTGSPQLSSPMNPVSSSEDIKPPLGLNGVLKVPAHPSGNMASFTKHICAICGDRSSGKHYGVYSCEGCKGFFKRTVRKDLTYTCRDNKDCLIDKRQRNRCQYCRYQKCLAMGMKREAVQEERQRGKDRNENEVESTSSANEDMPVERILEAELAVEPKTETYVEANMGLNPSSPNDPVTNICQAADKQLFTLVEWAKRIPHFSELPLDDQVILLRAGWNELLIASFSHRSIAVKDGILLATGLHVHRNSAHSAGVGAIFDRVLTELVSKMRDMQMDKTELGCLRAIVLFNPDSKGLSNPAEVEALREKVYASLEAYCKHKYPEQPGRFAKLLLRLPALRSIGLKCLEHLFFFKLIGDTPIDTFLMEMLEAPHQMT

B1: DR-5 RARE probe (dsDNA)
DNA 1: TCAGGTCACCAGGAGGTCAGA
DNA 2: TCTGACCTCCTGGTGACCTGA
B1: no binding [1]; no binding [2].
